According to US9555076B2, “Neuregulin based methods and compositions for treating cardiovascular diseases” (Zensun (Shanghai) Science & Technology, Co., Ltd., priority 2002, dated 2017):
Values joined by “and” are separate entries in the source; they are usually repeats but may differ in a detail not shown here. Equal entries are not always repeated.

Tests used:
[1] = test system: toxic myocarditis caused by Adriamycin in rat; experiment: Serum troponin T (cTnT) level, Adriamycin rat model; format: in vivo, SD rat; details: Adriamycin model, (I)
Description: 2 ml of arterial blood was withdrawn, serum extracted, frozen and stored at −20° C., determination of serum cTnT content was performed with electrochemistry irradiate method submitted to be carried out by Clinical Laboratory of Zhong Shan Hospital.

[2] = test system: acute myocardial injury caused by viral (Coxsackie B3) infection in mice; experiment: Serum troponin I (cTnI), mice infected with Coxsackie B3 virus; format: in vivo, BALB/C mice
Description: Severity of myocardial injury was evaluated through determination of the amount of serum cTnI release, with advantage of high specificity and high sensitivity when comparing with other traditional index such as CK, LDH and AST. Therefore, serum cTnI content determination was used as an objective index reflecting the severity of myocardial injury.
At the 8th day of viral injection, body weight of the mice was measured and blood withdrawn from the orbit, serum separated, stored in −20° C. refrigerator and serum cTnI determination with luminous reaction carried out.

[3] = test system: congestive heart failure caused by inferior vena cava constriction in dog; experiment: Hemodynamic index by catheterization, TIVCC dog; format: in vivo, crossbred dog; details: for L(−dp/dt) / L(+dp/dt): left ventricle
Description: 7F trifid balloon floating catheter was inserted into the right jugular vein, right auricular pressure, right ventricular pressure, pulmonary pressure and pulmonary wedge pressure were recorded.
6F trifid balloon floating catheter was again inserted into left carotid artery, aorta pressure and left ventricle pressure were recorded with physiology recorder with the following major index: LVPmax, LVPmin, +dp/dt, and −dp/dt.

[4] = test system: phosphorylation of ErbB2 protein, MCF-7 cells; experiment: In vitro determination of NRG-1 activity (ELISA test for kinase receptor activation); format: cell-based, human
Source text: Quantity of standard product that can induce 50% maximal reaction is defined as an activity unit (1U). Accordingly, product from different pharmaceuticals and of different batch number can be quantitated with uniform criteria.
HER2/neu gene encodes a trans-membrane protein p185, which is a tyrosine protein kinase. Binding of Neuregulin-1 with ErbB3 or ErbB4 induces heterodimer ErbB3-ErbB2 and ErbB4-ErbB2 formation and activates HER2 encoded tyrosine protein kinase, mediating the transmission of functioning signal of Neuregulin-1. Based on the fact that binding of Neuregulin-1 with its receptors triggers phosphorylation of ErbB2 protein, we establish a rapid, sensitive and high flux method for in vitro quantitatively determining biological activity of Recombinant Neuregulin-1.
150 mM NaCl+50 mM Hepes+1% Triton-X 100+2 mM (sodium orthovanadate)+0.01% (thimerosol). […]
Wash the plate 5 times, dilute HRP enzyme linked mouse anti-phosphorylated tyrosine protein antibody with 1:500 lotion (determined by the product using guide and the using time), add 100 μl into each hole of the plate. […]
Colorimetric analysis on the ELISA reader, determine wave length of 450 nm, reference wave length of 655, record the results. […]

[5] = test system: toxic myocarditis caused by Adriamycin in rat; experiment: Serum troponin T (cTnT) level, Adriamycin rat model; format: in vivo, SD rat
Rhesus = Rhesus long-term toxicity study, 3 weeks iv plus 3 weeks convalescence; details: 7.5, 15, 75 μg/kg/d iv 3 weeks

B1: rhNRG-1 β: Recombinant human neuregulin fragment of 61 amino acid (SEQ ID NO:4), 3 disulfide bonds, expressed in E. coli (protein, listed as Homo sapiens)
chain: SHLVKCAEKEKTFCVNGGECFMVKDLSNPSRYLCKCPNEFTGDRCQNYVMASFYKAEELYQ
modifications: disulfide (positions not given here)
- cTnT ([1]; 10 μg/kg iv qd × 10 d): 0.074 ± 0.024 ng/mL
- cTnT ([1]; 10 μg/kg iv qd × 10 d, listed as rhNRG-1β): 0.074 ± 0.024 ng/mL
- cTnT ([1]; 20 μg/kg iv qd × 10 d): 0.031 ± 0.006 ng/mL
- cTnT ([1]; 20 μg/kg iv qd × 10 d, listed as rhNRG-1β): 0.031 ± 0.006 ng/mL
- cTnT ([1]; 40 μg/kg iv qd × 10 d): 0.025 ± 0.011 ng/mL
- cTnT ([1]; 40 μg/kg iv qd × 10 d, listed as rhNRG-1β): 0.025 ± 0.011 ng/mL
- cTnI Mean ± SD ([2]; 7.5 μg/kg iv qd × 5, 8th day, (I)): 29.05 ± 17.06 ng/mL
- cTnI Mean ± SD ([2]; 7.5 μg/kg iv qd × 5, 8th day, (I), listed as rhNRG-1β): 29.05 ± 17.06 ng/mL
- cTnI Mean ± SD ([2]; 7.5 μg/kg iv qd × 5, 8th day, (II)): 26.85 ± 15.20 ng/mL
- cTnI Mean ± SD ([2]; 15 μg/kg iv qd × 5, 8th day, (I)): 19.43 ± 10.76 ng/mL
- cTnI Mean ± SD ([2]; 15 μg/kg iv qd × 5, 8th day, (I), listed as rhNRG-1β): 19.43 ± 10.76 ng/mL
- cTnI Mean ± SD ([2]; 15 μg/kg iv qd × 5, 8th day, (II)): 15.59 ± 14.94 ng/mL
- cTnI Mean ± SD ([2]; 30 μg/kg iv qd × 3, (I)): 13.37 ± 9.53 ng/mL
- cTnI Mean ± SD ([2]; 30 μg/kg iv qd × 3, (II)): 12.32 ± 18.36 ng/mL
- cTnI Mean ± SD ([2]; 30 μg/kg iv qd × 5, 8th day, (I)): 7.98 ± 6.07 ng/mL
- cTnI Mean ± SD ([2]; 30 μg/kg iv qd × 5, 8th day, (I), listed as rhNRG-1β): 7.98 ± 6.07 ng/mL
- cTnI Mean ± SD ([2]; 30 μg/kg iv qd × 5, 8th day, (II)): 0.54 ± 0.53 ng/mL
- cTnI Mean ± SD ([2]; 30 μg/kg iv qd × 5, Example 5 (I)): 1.06 ± 1.32 ng/mL
- cTnI Mean ± SD ([2]; 30 μg/kg iv qd × 5, Example 5 (I), listed as rhNRG-1β): 1.06 ± 1.32 ng/mL
- cTnI Mean ± SD ([2]; 30 μg/kg iv qd × 5, Example 5 (II)): 0.44 ± 0.24 ng/mL
- cTnI Mean ± SD ([2]; 30 μg/kg iv qd × 7, (I)): 1.05 ± 1.2 ng/mL and 1.05 ± 1.20 ng/mL
- cTnI Mean ± SD ([2]; 30 μg/kg iv qd × 7, (I), listed as rhNRG-1β): 1.05 ± 1.20 ng/mL
- cTnI Mean ± SD ([2]; 30 μg/kg iv qd × 7, (II)): 0.51 ± 0.28 ng/mL
- LVPmax ([3]; 1 μg/kg iv daily 5 days): 102.12 ± 12.42 mmHg
- LVPmin ([3]; 1 μg/kg iv daily 5 days): 0.59 ± 3.05 mmHg
- LVPmax ([3]; 3 μg/kg iv daily 5 days): 114.68 ± 17.12 mmHg
- LVPmin ([3]; 3 μg/kg iv daily 5 days): −1.12 ± 1.34 mmHg
- LVPmax ([3]; 10 μg/kg iv daily 5 days): 122.87 ± 17.37 mmHg
- LVPmin ([3]; 10 μg/kg iv daily 5 days): −0.69 ± 1.05 mmHg
- effect on the right ventricle ([3]; 1, 3 and 10 μg/kg iv daily 5 days): not apparent
- L(−dp/dt) ([3]; 1 μg/kg iv daily 5 days): −2933 ± 613.44 mmHg/s
- L(+dp/dt) ([3]; 3 μg/kg iv daily 5 days): 5000.45 ± 1535.88 mmHg/s
- L(−dp/dt) ([3]; 3 μg/kg iv daily 5 days): −3249.52 ± 973.32 mmHg/s
- L(+dp/dt) ([3]; 10 μg/kg iv daily 5 days): 5104.88 ± 1332.05 mmHg/s
- L(−dp/dt) ([3]; 10 μg/kg iv daily 5 days): −3658.34 ± 1390.97 mmHg/s
- specific activity ([4]; batch number 200210024): 1.12×10^4 U/mg
- specific activity ([4]; purified recombinant neuregulin from engineered strain): more than 5×10^3 EU/mg
- cTnI ([5]; 10 μg/kg iv qd × 10 d, (II)): 8.342 ± 13.537 ng/mL
- cTnI ([5]; 20 μg/kg iv qd × 10 d, (II)): 1.677 ± 0.589 ng/mL
- cTnI ([5]; 40 μg/kg iv qd × 10, (II)): 0.874 ± 0.108 ng/mL
- animal death (Rhesus): No animal death associated with the testing drug
